Reference: publication PMC5809688 (Molecular and Cellular Biology, 2017)

Key:
p38α(T185G) = biological target: T1, p38α(T185G) (UniProt P47811 1-360, T185G); assay: ITC; ITC200 microcalorimeter (Microcal); T = 298 K; heats corrected for dilution; which partner was titrated is not stated; conditions: both partners purified
T1 construct: PCR product described as a full-length p38α harboring the desired mutation; His6 tag followed by a TEV cleavage site at the N-terminal end; also called T185G mutant; p38α(T185G) mutant kinase

[1] = biological target: T2, wild-type p38α mitogen-activated protein kinase (UniProt P47811 1-360); assay: as above; conditions: both partners purified
T2 construct: His6 tag followed by a TEV cleavage site at the N-terminal end; also called wtp38α
T2 sequence (P47811 whole entry): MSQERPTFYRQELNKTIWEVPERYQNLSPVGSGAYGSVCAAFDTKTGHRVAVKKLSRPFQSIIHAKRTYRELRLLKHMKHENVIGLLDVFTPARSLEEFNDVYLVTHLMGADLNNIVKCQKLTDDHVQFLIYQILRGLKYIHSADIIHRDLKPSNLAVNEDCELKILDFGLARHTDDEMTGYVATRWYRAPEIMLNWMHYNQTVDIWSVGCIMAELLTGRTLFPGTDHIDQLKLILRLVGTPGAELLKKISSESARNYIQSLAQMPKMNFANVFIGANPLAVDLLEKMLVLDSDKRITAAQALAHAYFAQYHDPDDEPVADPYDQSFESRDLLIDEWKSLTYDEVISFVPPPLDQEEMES

T1 sequence (P47811 whole entry T185G): as the sequence (P47811 whole entry) above, with T185G counted along it

In the case of GGRVYPVSVPYSSAQSTSKTSVTLSLVMP (peptide, UniProt Q15750 384-412, looked up), the Kd (p38α(T185G)) is reported as 1100 nM, the dH (p38α(T185G)) is reported as -9.6 kcal/mol and the “stoichiometry N” value (p38α(T185G)) is reported as 0.7. The Kd [1] was 2900 nM, the dH [1] was -13.6 kcal/mol and the “stoichiometry N” value [1] was 0.8.
